Experimental findings from patent US20190119318A1 are described below.

Assay [1] deals with human polyclonal IgG (Gammanorm) (human). In words: column DBC, 6 min residence; agarose beads; ligand 10.8 mg/ml.
Assay [2] has the same target. In words: column DBC; vs reference Zvar4; 0.5 M NaOH.
The target is the same in assay [3]. In words: column DBC; ligand 10.8 mg/ml; after 6 x 4 h 0.5 M NaOH.
The target of assay [4] is IgG1 monoclonal antibody (probe molecule). In words: SPR (Biacore), ligand on CM5 chip, IgG1 mAb as probe.
The target of assay [5] is human polyclonal IgG (Gammanorm) (human). In words: SPR; vs reference Zvar1; 0.5 M NaOH cycles.
Assay [6] has the same target. The assay can be described thus: SPR; after 96-100 CIP cycles 0.5 M NaOH.
For assay [7] the target is unchanged. In words: column DBC; vs reference Zvar4; 1.0 M NaOH.
For assay [8] the target is unchanged. The assay can be described thus: column DBC, 6 min residence; agarose beads; ligand […].
The target is the same in assay [9]. In words: column DBC; ligand […]; after 6 x 4 h 1.0 M NaOH.
The target is the same in assay [10]. In words: column DBC, 6 min residence; agarose beads; ligand […]. This is another data set of the same source.
For assay [11] the target is unchanged. The assay can be described thus: column DBC; ligand […]; after 6 x 4 h 0.5 M NaOH.
For assay [12] the target is unchanged. In words: column DBC, 6 min residence; agarose beads; ligand 7.2 mg/ml.
For assay [13] the target is unchanged. In words: column DBC; ligand 7.2 mg/ml; after 6 x 4 h 0.5 M NaOH.
Assay [14] shares this target. In words: SPR; after 100 CIP cycles 1 M NaOH.
Assay [15] has the same target. In words: SPR; after 200 CIP cycles 0.5 M NaOH.
Assay [16] shares this target. In words: SPR; after 300 CIP cycles 0.5 M NaOH.
Assay [17] shares this target. In words: SPR; after 100 CIP cycles 0.5 M NaOH.
Assay [18] shares this target. In words: SPR; vs reference Zvar4; 1 M NaOH.
Assay [19] has the same target. In words: SPR; vs reference Zvar4; 0.5 M NaOH.
Assay [20] shares this target. The assay can be described thus: column DBC, 6 min residence; agarose beads; ligand 9.7 mg/ml.
For assay [21] the target is unchanged. The assay can be described thus: column DBC; ligand 9.7 mg/ml; after 6 x 4 h 1.0 M NaOH.
For assay [22] the target is unchanged. The assay can be described thus: column DBC; ligand 9.7 mg/ml; after 6 x 4 h 0.5 M NaOH.
Assay [23] has the same target. The assay can be described thus: column DBC, 6 min residence; agarose beads; ligand 9.7 mg/ml. The source holds these as a separate data set.
Assay [24] shares this target. The assay can be described thus: column DBC, 6 min residence; agarose beads; ligand 7.0 mg/ml.
Assay [25] shares this target. In words: column DBC; ligand 7.0 mg/ml; after 6 x 4 h 0.5 M NaOH.

“Zvar(Q9A,N11K,H18K,D37E,A42R)4 with an additional N-terminal cysteine (designed binder)” yielded an initial IgG capacity Qb10 in assay [1] of 56.9 mg/mL. The capacity retention relative to ref. after six 4 h cycles in assay [2] was determined as 1.3. For the same substance, in [3], the remaining IgG capacity Qb10 after six 4 h cycles turned out to be 52.5 mg/mL and the remaining IgG capacity after six 4 h cycles was 92%.

Regarding “Zvar(Q9A,N11E,Q40V,A42K,N43A,L44I)1 (designed binder)”, in assay [4], the Kd worked out at 1.07 nM, the koff turned out to be 0.000437 s⁻¹ and the kon was determined as 410000 M⁻¹ s⁻¹. Also, the capacity relative to reference in assay [5] worked out at 1.4. The same substance showed a capacity after 96-100 cycles in assay [6] of 66%.

Take “Zvar(Q9A,N11E,Q40V,A42K,N43A,L44I)4 with an additional N-terminal cysteine (designed binder)”: the capacity retention relative to ref. after six 4 h cycles in assay [7] worked out at 1.67; in assay [2] (ligand content 7.2 mg/ml), 1.5. Moreover, the initial IgG capacity Qb10 is 60.3 mg/mL in [8], 56.3 mg/mL in [10] and 49 mg/mL in assay [12]. For the same substance, the remaining IgG capacity Qb10 after six 4 h cycles in [9] came to 56 mg/mL; in assay [11], 53.6 mg/mL; in assay [13] it was 44.2 mg/mL. Moreover, the remaining IgG capacity after six 4 h cycles in assay [9] worked out at 93%; in assay [11], 95%; in assay [13], 90%.

In [14], “Zvar(Q9A,N11E,N28A,N43A)4 (designed binder)” displayed a remaining capacity 100 cycles of 55%. Also, the remaining capacity 200 cycles in [15] stood at 62%. For the same substance, the remaining capacity 300 cycles in [16] amounted to 42%. Besides, the remaining capacity 100 cycles in assay [17] came to 80%. Moreover, the capacity relative to ref. 100 cycles in assay [18] was determined as 2.04. Further, in [19], the capacity relative to ref. 100 cycles worked out at 1.19, the capacity relative to ref. 200 cycles amounted to 1.72 and the capacity relative to ref. 300 cycles came to 2.62.

Take “Zvar(N11K,H18K,S33K,D37E,A42R,N43A,L44I,K50R,L51Y)4 with an additional N-terminal cysteine (designed binder)”: the capacity retention relative to ref. after six 4 h cycles is 1.44 in assay [7] and 1.53 in [2]. Further, the initial IgG capacity Qb10 worked out at 62.1 mg/mL in [20] and 56.3 mg/mL in [23]. Also, the remaining IgG capacity Qb10 after six 4 h cycles in assay [21] was 48.1 mg/mL; in assay [22], 52 mg/mL. In addition, the remaining IgG capacity after six 4 h cycles worked out at 77% in [21] and 92% in assay [22].

As to “Zvar(Q9A,N11E,N28A,N43A)4 with an additional N-terminal cysteine (designed binder)”, the values for the initial IgG capacity Qb10 in [24] and in [10] were 49.1 mg/mL and 50 mg/mL, respectively. This substance showed a capacity retention relative to ref. after six 4 h cycles in [2] (ligand content 7.0 mg/ml) of 1.5. The remaining IgG capacity Qb10 after six 4 h cycles is 44.1 mg/mL in assay [25] and 46.2 mg/mL in [11]. The remaining IgG capacity after six 4 h cycles in [25] was determined as 90%; in [11] it was 93%.
